Data published in PMC5915679 (Molecular cell, 2017).
No end group written: not given here. FAM = fluorescein amidite

What was measured:
human Argonaute-1 [1] = biological target: T1, human Argonaute-1 (human, UniProt Q9UL18 1-857); test: ITC
human Argonaute-1 [2] = biological target: T1, human Argonaute-1; test: fluorescence polarisation

| Kd (human Argonaute-1 [1]) | binding result (human Argonaute-1 [2]) | Binder |
| --- | --- | --- |
| 383 nM | – | TVDNGTSAWGKPIDSGPSWGEP (peptide, UniProt Q8NDV7-2 820-841, looked up) [hGW182 (TNRC6A) hook motif] |
| – | binds | {FAM}-TVDNGTSAWGKPIDSGPSWGEP (peptide, UniProt Q8NDV7-2 820-841, looked up) [N-terminal fluorescein amidite (FAM) labeled hGW182 hook fragment] |
